The record followed here is patent publication US20260008822A1 (RECOURSE BIOLOGICS, published 2026).

The target of this test is T1, E0 (EGFR-OMCP bispecific fusion protein: cetuximab scFv - (GGGGS)3 linker - OMCP - His8 tag).
T1 construct: also called OMCP-EGFR; OMCP-EGFR scFv
The test is described as follows: SPR (ProteOn XPR36), human NKG2D amine-coupled to the chip, bispecific as analyte, 1:1 Langmuir fit.

By Kd is commonly meant a measure of binding affinity in units of concentration. A lower Kd goes with higher affinity.

B1: human NKG2D (receptor, UniProt P26718 78-216, looked up)
chain: FLNSLFNQEVQIPLTESYCGPCPKNWICYKNNCYQFFDESKNWYESQASCMSQNASLLKVYSKEDQDLLKLVKSYHWMGLVHIPTNGSWQWEDGSILSPNLLTIIEMQKGDCALYASSFKGYIENCSTPNTYICMQRTV
Molecule B1 displayed a Kd of 0.17 nM.
